Test results from patent US11065314B2, “Peptides and combination of peptides for use in immunotherapy against breast cancer and other cancers” (Immatics Biotechnologies GmbH, priority 2015, dated 2021).
Square brackets hold non-standard residues; d marks the D form. Ends that are not written are not given here. pT = C[C@@H](OP(=O)(O)O)[C@H](N)C(=O)O

Each sequence was assayed on CD8+ T cells of healthy HLA-A*02 donors (assay: In vitro T-cell priming (aAPC with pMHC and anti-CD28), pMHC multimer readout). Settings: HLA class I peptides, Table 10A.
Type: cell-based, human
Text: In order to obtain information regarding the immunogenicity of the TUMAPs of the present invention, the inventors performed investigations using an in vitro T-cell priming assay based on repeated stimulations of CD8+ T cells with artificial antigen presenting cells (aAPCs) loaded with peptide/MHC complexes and anti-CD28 antibody.
In order to perform in vitro stimulations by artificial antigen presenting cells loaded with peptide-MHC complex (pMHC) and anti-CD28 antibody, the inventors first isolated CD8+ T cells from fresh HLA-A*02 leukapheresis products via positive selection using CD8 microbeads (Miltenyi Biotec, Bergisch-Gladbach, Germany) of healthy donors obtained from the University clinics Mannheim, Germany, after informed consent.
PBMCs and isolated CD8+ lymphocytes were incubated in T-cell medium (TCM) until use consisting of RPMI-Glutamax (Invitrogen, Karlsruhe, Germany) supplemented with 10% heat inactivated human AB serum (PAN-Biotech, Aidenbach, Germany), 100 U/ml Penicillin/100 μg/ml Streptomycin (Cambrex, Cologne, Germany), 1 mM sodium pyruvate (CC Pro, Oberdorla, Germany), 20 μg/ml Gentamycin (Cambrex). 2.5 ng/ml IL-7 (PromoCell, Heidelberg, Germany) and 10 U/ml IL-2 (Novartis Pharma, Nümberg, Germany) were also added to the TCM at this step.
Generation of pMHC/anti-CD28 coated beads, T-cell stimulations and readout was performed in a highly defined in vitro system using four different pMHC molecules per stimulation condition and 8 different pMHC molecules per readout condition.
The purified co-stimulatory mouse IgG2a anti human CD28 Ab 9.3 (Jung et al., 1987) was chemically biotinylated using Sulfo-N-hydroxysuccinimidobiotin as recommended by the manufacturer (Perbio, Bonn, Germany). Beads used were 5.6 μm diameter streptavidin coated polystyrene particles (Bangs Laboratories, Illinois, USA).
800.000 beads/200 μl were coated in 96-well plates in the presence of 4×12.5 ng different biotin-pMHC, washed and 600 ng biotin anti-CD28 were added subsequently in a volume of 200 μl. Stimulations were initiated in 96-well plates by co-incubating 1×10^6 CD8+ T cells with 2×10^5 washed coated beads in 200 μl TCM supplemented with 5 ng/ml IL-12 (PromoCell) for 3 days at 37° C. Half of the medium was then exchanged by fresh TCM supplemented with 80 U/ml IL-2 and incubating was continued for 4 days at 37° C. This stimulation cycle was performed for a total of three times. For the pMHC multimer readout using 8 different pMHC molecules per condition, a two-dimensional combinatorial coding approach was used as previously described (Andersen et al., 2012) with minor modifications encompassing coupling to 5 different fluorochromes. Finally, multimeric analyses were performed by staining the cells with Live/dead near IR dye (Invitrogen, Karlsruhe, Germany), CD8-FITC antibody clone SK1 (BD, Heidelberg, Germany) and fluorescent pMHC multimers. For analysis, a BD LSRII SORP cytometer equipped with appropriate lasers and filters was used. Peptide specific cells were calculated as percentage of total CD8+ cells. Evaluation of multimeric analysis was done using the FlowJo software (Tree Star, Oregon, USA). In vitro priming of specific multimer+CD8+ lymphocytes was detected by comparing to negative control stimulations.

Row | Sequence | wells (in vitro immunogenicity, positive wells)
1 | TLSSIKVEV (listed as Homo sapiens) [SEQ ID NO: 50, peptide useful for personalized cancer therapies, source gene MXRA5] | + (<20% = +)

Each sequence was assayed against HLA-A*02:01 (Homo sapiens, UniProt P04439, D140Y/D185E/D98H/E176V/E277Q/G131W/G231S/I119V/I121R/I166T/I218V/L300P/L318F/N151K/N90K/P208A/P217A/Q86G/Q94H/R138H/R169H/T345S) (assay: MHC binding assay: UV-ligand exchange with β2m ELISA). Settings: binding to HLA-A*02:01, UV-ligand exchange.
Text: Candidate peptides for T cell based therapies according to the present invention were further tested for their MHC binding capacity (affinity). The individual peptide-MHC complexes were produced by UV-ligand exchange, where a UV-sensitive peptide is cleaved upon UV-irradiation, and exchanged with the peptide of interest as analyzed. Only peptide candidates that can effectively bind and stabilize the peptide-receptive MHC molecules prevent dissociation of the MHC complexes. To determine the yield of the exchange reaction, an ELISA was performed based on the detection of the light chain (β2m) of stabilized MHC complexes. The assay was performed as generally described in Rodenko et al. (Rodenko et al., 2006).
96 well MAXISorp plates (NUNC) were coated over night with 2 ug/ml streptavidin in PBS at room temperature, washed 4× and blocked for 1 h at 37° C. in 2% BSA containing blocking buffer. Refolded HLA-A*02:01/MLA-001 monomers served as standards, covering the range of 15-500 ng/ml. Peptide-MHC monomers of the UV-exchange reaction were diluted 100-fold in blocking buffer. Samples were incubated for 1 h at 37° C., washed four times, incubated with 2 ug/ml HRP conjugated anti-β2m for 1 h at 37° C., washed again and detected with TMB solution that is stopped with […]. Absorption was measured at 450 nm. Candidate peptides that show a high exchange yield (preferably higher than 50%, most preferred higher than 75%) are generally preferred for a generation and production of antibodies or fragments thereof, and/or T cell receptors or fragments thereof, as they show sufficient avidity to the MHC molecules and prevent dissociation of the MHC complexes.

Row | Sequence | Peptide Exchange (peptide exchange yield)
2 | SLFPSLVVV (listed as Homo sapiens) [SEQ ID NO: 15, HLA-A*02 peptide, source gene PLEC] | “+++” (≥50 = +++)
3 | GLHSLPPEV (listed as Homo sapiens) [SEQ ID NO: 10, HLA-A*02 peptide, source gene LRRC8E] | “+++” (≥50 = +++)
4 | GLVATLQSL (listed as Homo sapiens) [SEQ ID NO: 32, HLA-A*02 peptide, source gene IFI6] | “+++” (≥50 = +++)
5 | FIIPTVATA (listed as Homo sapiens) [SEQ ID NO: 7, HLA-A*02 peptide, source gene ABCC11] | “++++” (≥75% = ++++)
6 | FLSSEAANV (listed as Homo sapiens) [SEQ ID NO: 30, HLA-A*02 peptide, source gene TNFAIP2] | “++” (≥20% = ++)
7 | TIASSIEKA (listed as Homo sapiens) [SEQ ID NO: 17, HLA-A*02 peptide, source gene STPG2] | “++” (≥20% = ++)
8 | ILFDVVVFL (listed as Homo sapiens) [SEQ ID NO: 25, HLA-A*02 peptide, source gene C4orf3] | “++” (≥20% = ++)
9 | GLSYIYNTV (listed as Homo sapiens) [SEQ ID NO: 31, HLA-A*02 peptide, source gene COG6] | “++” (≥20% = ++)
10 | SLAEPRVSV (listed as Homo sapiens) [SEQ ID NO: 27, HLA-A*02 peptide, source gene FASN] | “+++” (≥50 = +++)
11 | FLVEHVLTL (listed as Homo sapiens) [SEQ ID NO: 42, HLA-A*02 peptide, source gene printed 5LC39A6] | “++++” (≥75% = ++++)
12 | KLLDMELEM (listed as Homo sapiens) [SEQ ID NO: 39, HLA-A*02 peptide, source gene FAH] | “++++” (≥75% = ++++)
13 | FLDEEVKLI (listed as Homo sapiens) [SEQ ID NO: 43, HLA-A*02 peptide, source gene FTL] | “+++” (≥50 = +++)
14 | SMMGLLTNL (listed as Homo sapiens) [SEQ ID NO: 16, HLA-A*02 peptide, source gene ESR1] | “++++” (≥75% = ++++)
15 | GLVQSLTSI (listed as Homo sapiens) [SEQ ID NO: 8, HLA-A*02 peptide, source gene ABCC11] | “++++” (≥75% = ++++)
16 | GLLPTSVSPRV (listed as Homo sapiens) [SEQ ID NO: 11, HLA-A*02 peptide, source gene SCUBE2] | “++” (≥20% = ++)
17 | TLLGLAVNV (listed as Homo sapiens) [SEQ ID NO: 36, HLA-A*02 peptide, source gene CHPT1] | “++++” (≥75% = ++++)
18 | YILLQSPQL (listed as Homo sapiens) [SEQ ID NO: 18, HLA-A*02 peptide, source gene MUC6] | “++++” (≥75% = ++++)

Row | Sequence | Peptide Exchange (peptide exchange yield)
19 | ALNPVIYTV (listed as Homo sapiens) [SEQ ID NO: 5, HLA-A*02 peptide, source gene DRD4] | “++” (≥20% = ++)
20 | FMSKLVPAI (listed as Homo sapiens) [SEQ ID NO: 9, HLA-A*02 peptide, source gene TPRG1] | “+++” (≥50 = +++)
21 | ALTALQNYL (listed as Homo sapiens) [SEQ ID NO: 6, HLA-A*02 peptide, source gene TFAP2B] | “+++” (≥50 = +++)
22 | KAFPFYNTV (listed as Homo sapiens) [SEQ ID NO: 12, HLA-A*02 peptide, source gene NAIP] | “++” (≥20% = ++)
23 | KQLELELEV (listed as Homo sapiens) [SEQ ID NO: 14, HLA-A*02 peptide, source gene MUC6] | “+++” (≥50 = +++)
24 | KLYEGIPVL (listed as Homo sapiens) [SEQ ID NO: 13, HLA-A*02 peptide, source gene NEK10] | “++” (≥20% = ++)
25 | SLFSVPFFL (listed as Homo sapiens) [SEQ ID NO: 28, HLA-A*02 peptide, source gene TM9SF1] | “++++” (≥75% = ++++)
26 | FSFPVSVGV (listed as Homo sapiens) [SEQ ID NO: 20, HLA-A*02 peptide, source gene DUSP4] | “+++” (≥50 = +++)
27 | SLNDQGYLL (listed as Homo sapiens) [SEQ ID NO: 41, HLA-A*02 peptide, source gene MCM8] | “+++” (≥50 = +++)
28 | SLAWDVPAA (listed as Homo sapiens) [SEQ ID NO: 26, HLA-A*02 peptide, source gene FASN] | “+++” (≥50 = +++)
29 | SLLSEIQAL (listed as Homo sapiens) [SEQ ID NO: 35, HLA-A*02 peptide, source genes AKAP9, PCNT] | “++++” (≥75% = ++++)
30 | SLVEGEAVHLA (listed as Homo sapiens) [SEQ ID NO: 4, HLA-A*02 peptide, source genes TFAP2E, TFAP2A, TFAP2B, TFAP2C] | “++” (≥20% = ++)
31 | ALEAUQLYL (ALEA[pT]QLYL; listed as Homo sapiens) [SEQ ID NO: 29, HLA-A*02 peptide, source gene DEPDC4; U = phospho-threonine] | “+++” (≥50 = +++)
32 | ILTELPPGV (listed as Homo sapiens) [SEQ ID NO: 33, HLA-A*02 peptide, source gene ZNF407] | “++” (≥20% = ++)
33 | ALEEQLHQV (listed as Homo sapiens) [SEQ ID NO: 19, HLA-A*02 peptide, source genes KRT25, KRT28, KRT27] | “++” (≥20% = ++)
34 | LLMUVAGLKL (LLM[pT]VAGLKL; listed as Homo sapiens) [SEQ ID NO: 38, HLA-A*02 peptide, source gene PCNXL3; U = phospho-threonine] | “++++” (≥75% = ++++)
